Measured values as given in FireProtDB.
Where “and” joins values, the source holds several entries; their conditions need not be identical. Identical values can stand only once.

Conditions: whole UniProt chain shown
[1] = Bos taurus, pH 6, Thermal, DSC, Sodium phosphate 50 mM, NaCl 200 mM, reversible: yes
[2] = Comamonas testosteroni, pH 7, 25 °C, Urea, Fluorescence, phosphate 25 mM, reversible: yes

B1: Ribonuclease pancreatic wild type, P61823 (protein)
chain: MALKSLVLLSLLVLVLLLVRVQPSLGKETAAAKFERQHMDSSTSAASSSNYCNQMMKSRNLTKDRCKPVNTFVHESLADVQAVCSQKNVACKNGQTNCYQSYSTMSITDCRETGSSKYPNCAYKTTQANKHIIVACEGNPYVPVHFDASV
For B1, the Tm [1] was 47.7 °C, the “heat capacity change of unfolding” value [1] was 2 kcal/mol/K and the “unfolding enthalpy (calorimetric)” value [1] was 107 kcal/mol.

B2: Steroid Delta-isomerase wild type, P00947 (protein)
chain: MNTPEHMTAVVQRYVAALNAGDLDGIVALFADDATVEDPVGSEPRSGTAAIREFYANSLKLPLAVELTQEVRAVANEAAFAFTVSFEYQGRKTVVAPIDHFRFNGAGKVVSMRALFGEKNIHAGA
For B2, the denaturant m value [2] was 4 kcal/mol/M and the unfolding free energy [2] was 22 kcal/mol.

B3: wild type, B8YLY0 (protein)
chain: MKKVLMAFIICLSLILSVLAAPPSGAKAESVHNPVVLVHGISGASYNFFAIKNYLISQGWQSNKLYAIDFYDKTGNNLNNGPQLASYVDRVLKETGAKKVDIVAHSMGGANTLYYIKYLGGGNKIQNVVTLGGANGLVSSTALPGTDPNQKILYTSIYSLNDQIVINSLSRLQGARNIQLYGIGHIGLLSNSQVNGYIKEGLNGGGLNTN
In the case of B3, the “denaturant midpoint (higher = more stable)” value (shortened to “denaturant midpoint”) (Bacillus subtilis, pH 0.8, 25 °C, GdnHCl, CD, KCl-HCl 20 mM, reversible: No) is reported as 3 M, the “denaturant midpoint” value (Bacillus subtilis, pH 0.8, 25 °C, GdnHCl, Fluorescence, KCl-HCl 20 mM, reversible: No) is reported as 2.6 M and the Tm (Bacillus subtilis, pH 0.8, Thermal, CD, KCl-HCl 20 mM, reversible: No) is reported as 75 °C. For the same protein, the Tm (Bacillus subtilis, pH 4, Thermal, Fluorescence, Sodium acetate 50 mM, reversible: Yes) was 45 °C, the unfolding free energy (Bacillus subtilis, pH 5.8, 25 °C, Urea, Fluorescence, NaAc 20 mM, reversible: Yes) was 11.2 kcal/mol and the unfolding free energy (Bacillus subtilis, pH 5.8, 25 °C, Urea, NMR, NaAc 20 mM, reversible: Yes) was 9.56 kcal/mol. For the same protein, the Tm (Bacillus subtilis, pH 5.8, Thermal, DSC, NaAc 20 mM, reversible: No) was 53 °C, the Tm (Bacillus subtilis, pH 6, Thermal, CD, phosphate buffer 20 mM) was 54.6 °C and the “denaturant midpoint” value (Bacillus subtilis, pH 7, 25 °C, GdnHCl, CD, Sodium phosphate 20 mM, reversible: Yes) was 1 M. For the same protein, the “denaturant midpoint” value (Bacillus subtilis, pH 7, 25 °C, GdnHCl, Fluorescence, Sodium phosphate 20 mM, reversible: Yes) was 0.8 M, the unfolding free energy (Bacillus subtilis, pH 7, 25 °C, Urea, Fluorescence, Sodium acetate 50 mM, reversible: Yes) was 11.4 kcal/mol and the Tm (Bacillus subtilis, pH 7, Thermal, CD, Sodium phosphate 20 mM, reversible: No) was 47 °C. For the same protein, the unfolding free energy (Bacillus subtilis, pH 7.2, 25 °C, GdnHCl, CD, Sodium phosphate 50 mM, reversible: Yes) was 11.4 kcal/mol and 13.8 kcal/mol.
